Experimental data: article PMC5364132, “Anti-Biofilm Activity of a Self-Aggregating Peptide against Streptococcus mutans” (Frontiers in Microbiology, 2017)

Molecular target: the molecule itself
Experiment: FTIR spectroscopy; peptides at 1 and 0.1 mg/ml in PBS, 8 μl dried as thin films on the ATR surface; spectra 1800-1500 cm^-1; peaks at 1621 and 1695 cm^-1 read as antiparallel β-sheet assembly

B1: synthetic peptide P1 (peptide)
peptide: PARKARAATAATAATAATAATAAT
notes: 24-amino acid synthetic peptide designed with repeated motifs of the Ixodes tick antifreeze glycoprotein (IAFGP); Not the streptococcal adhesin P1 (AgI/II, PAc); also called antivirulence peptide P1; source: synthetic peptide (Genscript, >80% purity)
  binding result: binds
